{"source": "paper PMC12724367", "about": "(Applied and Environmental Microbiology, 2025)", "molecules": {"B1": {"name": "PdG-D-LDH (Nocardiopsis eucommiae) (protein)", "chain": "MPGVVEELVAAIGTEQVVTDPAVMEGYSHDEAEWAPYGAPAAVVRPRDTADVAAVVRVCARSGVAVVGRGAGTGLSGAANSGRGWVVVSFERMNRVLEVDTVQQTATVQPGVVNDDLRARVAQDGLWYPPDPASAPWSTIGGNVATNAGGLCCVKYGVTRDYVLGMEAVVGTGEVVRLGRTTAKGVTGYDLAGLMVGSEGTLGLVTEVTLRLVPLRRGVEHTVVGYFDSLTDAGRAVAAVSAAGIVPSALELIDRFCLQAVDEWKNMGLSAEGEVLLLARSDLPGASGQEEADRILECFEQEKAVYAVRSTDKEEAEALFQARRLAYPALERLGPLLTEDVCVPKARVPHMLEAIEAAGERFDTRIGNIAHAGDGNLHPLFIVPAGDEEAKRRAKQAFEVIVDEALAVGGTVTGEHGVGLLKMRGAADELGPHVLAMHRAVKGALDPEGIFNPGKVFALEEA", "notes": "N-terminal His6 tag (pET15b), codon-optimised synthetic gene, E. coli Tuner; no tag cleavage told; homodimer (97 kDa) fraction"}}, "key": {"[1]": {"target": "T1, PdG-D-LDH (Nocardiopsis eucommiae, UniProt A0A975LBX7)", "T1 construct": "gene KGD82_12890; N-terminal His6 tag (pET15b), codon-optimised synthetic gene, E. coli Tuner; no tag cleavage told; homodimer (97 kDa) fraction", "assay": "X-ray crystal structure of complex (soak)", "assay_type": "binding", "conditions": "20 mM D-lactate soaked 10 min; active site, coordinated to Fe(II)"}, "[2]": {"target": "T1, PdG-D-LDH", "assay": "product inhibition, DCIP reduction assay", "assay_type": "biochemical"}, "[3]": {"target": "T1, PdG-D-LDH", "assay": "X-ray crystal structure; HPLC of released flavin", "assay_type": "binding", "conditions": "non-covalent, active site; co-purified"}, "[4]": {"substrate": "O=C1C=C(S(=O)(=O)O)c2ccccc2C1=O", "assay": "apparent steady-state kinetics, absorbance", "assay_type": "biochemical, Nocardiopsis eucommiae", "conditions": "electron acceptor, 20 mM sodium D-lactate, 100 mM phosphate, pH 7.5, 25 °C", "from_the_text": "apparent steady-state kinetics, absorbance on PdG-D-LDH"}, "[5]": {"substrate": "C[C@H](O)C(=O)O", "assay": "purified protein", "conditions": "0.075 mM DCIP as electron acceptor, 100 mM glycine-NaOH, pH 9, 25 °C"}, "[6]": {"substrate": "C[C@@H](O)C(=O)O", "assay": "purified protein", "conditions": "0.075 mM DCIP as electron acceptor, 100 mM glycine-NaOH, pH 9, 25 °C"}, "[7]": {"substrate": "O=C1C=CC(=O)C=C1", "assay": "purified protein", "assay_type": "biochemical, Nocardiopsis eucommiae", "conditions": "electron acceptor, 20 mM sodium D-lactate, 100 mM phosphate, pH 7.5, 25 °C"}}, "data": [{"molecule": "C[C@@H](O)C(=O)O", "note": "[D-lactate]", "values": [{"measurement": "X-ray crystal structure of complex (soak)", "setting": "[1]", "value": "a metal ion and the substrate D-lactate (in PdG-D-LDH-lactate complex) are clearly defined"}]}, {"molecule": "CC(=O)C(=O)O", "note": "[pyruvate]", "values": [{"measurement": "IC50", "setting": "[2]", "value": 53, "unit": "mM"}]}, {"molecule": "Cc1cc2nc3c(=O)[nH]c(=O)nc-3n(C[C@H](O)[C@H](O)[C@H](O)COP(=O)(O)OP(=O)(O)OC[C@H]3O[C@@H](n4cnc5c(N)ncnc54)[C@H](O)[C@@H]3O)c2cc1C", "note": "[FAD]", "values": [{"measurement": "X-ray crystal structure; HPLC of released flavin", "setting": "[3]", "value": "The structure contains a non-covalently bound FAD at the active site."}]}, {"molecule": "B1", "values": [{"measurement": "Km", "setting": "[4]", "value": "80 ± 10", "unit": "µM"}, {"measurement": "kcat", "setting": "[4]", "value": "0.95 ± 0.04", "unit": "s⁻¹"}, {"measurement": "kcat/Km", "setting": "[4]", "value": "12000 ± 2000", "unit": "M⁻¹ s⁻¹"}, {"measurement": "Km", "setting": "[5]", "value": "59000 ± 5000", "unit": "µM"}, {"measurement": "kcat", "setting": "[5]", "value": 4.7, "unit": "s⁻¹"}, {"measurement": "kcat/Km", "setting": "[5]", "value": 79, "unit": "M⁻¹ s⁻¹"}, {"measurement": "Km", "setting": "[6]", "value": "1000 ± 100", "unit": "µM"}, {"measurement": "kcat", "setting": "[6]", "value": 8.2, "unit": "s⁻¹"}, {"measurement": "kcat/Km", "setting": "[6]", "value": 8000, "unit": "M⁻¹ s⁻¹"}, {"measurement": "Km", "setting": "[7]", "value": "20 ± 10", "unit": "µM"}, {"measurement": "kcat", "setting": "[7]", "value": "1.8 ± 0.1", "unit": "s⁻¹"}, {"measurement": "kcat/Km", "setting": "[7]", "value": "80000 ± 30000", "unit": "M⁻¹ s⁻¹"}]}]}
